Assay: SDS PAGE analysis of Scn fusion protein before and after cleavage
Assay type: physicochemical
Conditions: fusion protein cleaved from Scn, expressed in mammalian cell culture
Excerpt: The cloned knottin or library was cotransfected into HEK293 cells and media was collected as described (“Daedalus: A Robust, Turnkey Platform for Rapid Production of Decigram Quantities of Active Recombinant Proteins in Human Cell Lines Using Novel Lentiviral Vectors.” Bandaranayake A. D., et al., Nucleic Acids Res. (2011) 39(21):e143). Fusion protein was isolated using nickel IMAC and cleaved with recombinant TEV protease. Excess siderocalin was removed via size exclusion chromatography, a process which also allowed the buffer to be switched to 10 mM ammonium formate. The knottin containing fractions were then lyophilized.
(§1) FIG. 19 depicts the expression of a Scn fusion with a cytoplasmic viral protein Adv2 and the corresponding SDS PAGE analysis according to one aspect of the present disclosure. […] Additionally this fusion protein has further utility because it can be used to raise antibodies against the viral antigen in rats, mice or rabbits using the corresponding Scn ortholog.
as §1, with “21” for “19”, “knottin protein, Imperatoxin,” for “cytoplasmic viral protein Adv2”, “Additionally,” for “Additionally”

Row | Molecule | stability of the protein after separation from Scn
1 | Adv2: cytoplasmic viral protein Adv2 expressed as a Scn fusion and cleaved from Scn (protein, UniProt P68978 18-159, looked up, expressed as Scn fusion, cleaved) Early E3 18.5 kDa glycoprotein: AKKVEFKEPACNVTFKSEANECTTLIKCTTEHEKLIIRHKDKIGKYAVYAIWQPGDTNDYNVTVFQGENRKTFMYKFPFYEMCDITMYMSKQYKLWPPQKCLENTGTFCSTALLITALALVCTLLYLKYKSRRSFIDEKKMP | stable even after separation from Scn
2 | HMOX1: cytoplasmic enzyme, HMOX1, expressed as a Scn fusion and cleaved from Scn (protein, UniProt P09601 1-288, looked up, expressed as Scn fusion, cleaved) Heme oxygenase 1: MERPQPDSMPQDLSEALKEATKEVHTQAENAEFMRNFQKGQVTRDGFKLVMASLYHIYVALEEEIERNKESPVFAPVYFPEELHRKAALEQDLAFWYGPRWQEVIPYTPAMQRYVKRLHEVGRTEPELLVAHAYTRYLGDLSGGQVLKKIAQKALDLPSSGEGLAFFTFPNIASATKFKQLYRSRMNSLEMTPAVRQRVIEEAKTAFLLNIQLFEELQELLTHDTKDQSPSRAPGLRQRASNKVQDSAPVETPRGKPPLNTRSQAPLLRWVLTLSFLVATVAVGLYAM | stable even after separation from Scn

— US10156559B2, “Lipocalin fusion partners” (Fred Hutchinson Cancer Research Center, priority 2012, dated 2018)
